Assay results from patent US11267868 (dated 2022).

T1: FcgRIIb (human, UniProt P31994)
T1 chain: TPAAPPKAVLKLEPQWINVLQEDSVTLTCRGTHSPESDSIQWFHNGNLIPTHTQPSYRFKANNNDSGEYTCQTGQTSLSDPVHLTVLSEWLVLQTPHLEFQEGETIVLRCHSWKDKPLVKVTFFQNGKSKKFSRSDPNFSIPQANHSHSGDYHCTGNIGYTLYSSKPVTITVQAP

T2: FcgRIa (human, UniProt P12314)
T2 chain: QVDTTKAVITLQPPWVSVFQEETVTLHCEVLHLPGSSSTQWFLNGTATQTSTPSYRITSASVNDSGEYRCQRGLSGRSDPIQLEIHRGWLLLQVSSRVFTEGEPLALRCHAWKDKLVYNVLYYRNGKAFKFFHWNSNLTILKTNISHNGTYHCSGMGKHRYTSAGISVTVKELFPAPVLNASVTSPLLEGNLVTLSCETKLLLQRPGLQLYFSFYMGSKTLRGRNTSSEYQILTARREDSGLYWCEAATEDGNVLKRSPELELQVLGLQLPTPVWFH

T3: FcgRIIaH (human, UniProt P12318)
T3 chain: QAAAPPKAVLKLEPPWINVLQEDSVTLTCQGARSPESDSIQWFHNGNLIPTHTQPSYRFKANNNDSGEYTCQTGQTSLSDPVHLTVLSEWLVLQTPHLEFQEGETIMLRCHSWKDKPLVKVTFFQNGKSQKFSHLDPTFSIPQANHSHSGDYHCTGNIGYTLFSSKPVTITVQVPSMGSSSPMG

T4: FcgRIIaR (human, UniProt P12318)
T4 chain: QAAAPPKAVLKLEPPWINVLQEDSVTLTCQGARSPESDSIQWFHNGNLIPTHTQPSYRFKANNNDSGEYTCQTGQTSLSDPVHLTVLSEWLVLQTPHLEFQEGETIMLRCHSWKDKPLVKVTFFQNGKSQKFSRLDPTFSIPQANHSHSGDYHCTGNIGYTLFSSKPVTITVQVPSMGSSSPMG


Assays:
Experiment in all cases: SPR
[1] = biological target: T1, FcgRIIb
[2] = biological target: FcgRIIIaV (human, UniProt P08637)
FcgRIIIaV, sequence (P08637 17-208 F176V): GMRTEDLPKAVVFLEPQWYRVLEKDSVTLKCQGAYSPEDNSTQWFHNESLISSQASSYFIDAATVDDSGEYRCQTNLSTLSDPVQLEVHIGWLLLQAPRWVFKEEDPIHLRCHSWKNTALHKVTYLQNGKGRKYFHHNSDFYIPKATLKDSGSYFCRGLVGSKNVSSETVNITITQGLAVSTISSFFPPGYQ

[3] = biological target: T2, FcgRIa
[4] = biological target: T3, FcgRIIaH
[5] = biological target: T4, FcgRIIaR

Row | Kd [1] [µM] | Kd [2] [µM] | Kd [3] [µM] | Kd [4] [µM] | Kd [5] [µM] | Binder
1 | 5.3 | 30 | 0.0074 | 110 | 50 | IL6R-P660/IL6R-L (antibody) chain 1: QVQLQESGPGLVKPSETLSLTCAVSGHSISHDHAWSWVRQPPGEGLEWIGFISYSGITNYNPSLQGRVTISRDNSKNTLYLQMNSLRAEDTAVYYCARSLARTTAMDYWGEGTLVTVSSASTKGPSVFPLAPSSKSTSGGTAALGCLVKDYFPEPVTVSWNSGALTSGVHTFPAVLQSSGLYSLSSVVTVPSSSLGTQTYICNVNHKPSNTKVDKKVEPKSCDKTHTCPPCPAPELLGGDSVFLFPPKPKDTLMISRTPEVTCVVVDVSHEDPEVKFNWYVDGVEVHNAKTKPREEQYNATYRVVSVLTVLHQDWLNGKEYKCKVNNKALPAPIEKTISKAKGQPREPQVYTLPPSRDELTKNQVSLTCLVKGFYPSDIAVEWESNGQPENNYKTTPPVLDSDGSFFLYSKLTVDKSRWQQGNVFSCSVMHEALHNHYTQKSLSLSP chain 2: not shown
2 | 4 | 63 | 0.31 | 140 | 74 | IL6R-P690/IL6R-L (antibody) chain 1: QVQLQESGPGLVKPSETLSLTCAVSGHSISHDHAWSWVRQPPGEGLEWIGFISYSGITNYNPSLQGRVTISRDNSKNTLYLQMNSLRAEDTAVYYCARSLARTTAMDYWGEGTLVTVSSASTKGPSVFPLAPSSKSTSGGTAALGCLVKDYFPEPVTVSWNSGALTSGVHTFPAVLQSSGLYSLSSVVTVPSSSLGTQTYICNVNHKPSNTKVDKKVEPKSCDKTHTCPPCPAPELLGQDSVMLFPPKPKDTLMISRTPEVTCVVVDVSHEDPEVKFNWYVDGVEVHNAKTKPREEQENSTYRVVSVLTVLHQDWLNGKEYKCKVSNKALPHPIEKTISKAKGQPREPQVYTLPPSRDELTKNQVSLTCLVKGFYPSDIAVEWESNGQPENNYKTTPPVLDSDGSFFLYSKLTVDKSRWQQGNVFSCSVMHEALHNHYTQKSLSLSP chain 2: not shown
3 | 3.1 | 44 | 0.024 | 86 | 37 | IL6R-P591/IL6R-L (antibody) chain 1: QVQLQESGPGLVKPSETLSLTCAVSGHSISHDHAWSWVRQPPGEGLEWIGFISYSGITNYNPSLQGRVTISRDNSKNTLYLQMNSLRAEDTAVYYCARSLARTTAMDYWGEGTLVTVSSASTKGPSVFPLAPSSKSTSGGTAALGCLVKDYFPEPVTVSWNSGALTSGVHTFPAVLQSSGLYSLSSVVTVPSSSLGTQTYICNVNHKPSNTKVDKKVEPKSCDKTHTCPPCPAPELLGGDSVMLFPPKPKDTLMISRTPEVTCVVVDVSHEDPEVKFNWYVDGVEVHNAKTKPREEQENSTYRVVSVLTVLHQDWLNGKEYKCKVSNKALPAPIEKTISKAKGQPREPQVYTLPPSRDELTKNQVSLTCLVKGFYPSDIAVEWESNGQPENNYKTTPPVLDSDGSFFLYSKLTVDKSRWQQGNVFSCSVMHEALHNHYTQKSLSLSP chain 2: not shown
4 | 4.3 | 48 | 0.76 | 130 | 72 | IL6R-P691/IL6R-L (antibody) chain 1: QVQLQESGPGLVKPSETLSLTCAVSGHSISHDHAWSWVRQPPGEGLEWIGFISYSGITNYNPSLQGRVTISRDNSKNTLYLQMNSLRAEDTAVYYCARSLARTTAMDYWGEGTLVTVSSASTKGPSVFPLAPSSKSTSGGTAALGCLVKDYFPEPVTVSWNSGALTSGVHTFPAVLQSSGLYSLSSVVTVPSSSLGTQTYICNVNHKPSNTKVDKKVEPKSCDKTHTCPPCPAPELFGQDSVMLFPPKPKDTLMISRTPEVTCVVVDVSHEDPEVKFNWYVDGVEVHNAKTKPREEQENSTYRVVSVLTVLHQDWLNGKEYKCKVSNKALPAPIEKTISKAKGQPREPQVYTLPPSRDELTKNQVSLTCLVKGFYPSDIAVEWESNGQPENNYKTTPPVLDSDGSFFLYSKLTVDKSRWQQGNVFSCSVMHEALHNHYTQKSLSLSP chain 2: not shown
